According to paper doi:10.1101/2024.09.06.611148 (bioRxiv, 2024):

Target: Alexa-647-labelled actin (UniProt P68135 1-377, Alexa-647 (Monolith NT Protein Labelling Kit RED-NHS))
Experiment: MST

- Kd: 330 ± 80 nM
B1: recombinant HYC2 (GST-HYC2 or HYC2-6XHis) (natural protein)
chain: MDFSVKPSGGSPSPSSSTSSSTPHRFKSVTTPTATAAAVSGFSPSAAADRDPMHSWWESVSKQRSRILSLSSLLSGDSHFEDGDVTPISSLADSDRPALSLLSSRAAYSLISNSLCNPASGSGSDPLCQWLYETYLSSDPPLRLVVLSFFPLLVGMYLSRIHSSDSTSLPSLSGFEAVLLAIYAAEVKARAGKPILVHIPDLSQPSLYHTPRNGVDKSRDSNPTASVGVLSPQLEPQIAVKSTKRASIVGVGLQCYFKEISQMPAWSKLEFCKFSASWAGQDCDCKEKIDEDEDKVLALTNGFGDSSSFNGSSGRSLEIEEDFDRLAIRENEEQLSSNGGGGGVGRGVRIPLPWELFQPTLRILGHCLLSPLNTEDVKDAASNAVRSLYARASHDLNPQAILATRSLVNLDTSARTSGKTVAAETVNGSSNVNTPSKAKKPEILLASK
